Experiments:
Settings in all cases: both partners purified
[1] = molecular target: T1, NEIL1-Δ100, truncated NEIL1 lacking 100 residues from the disordered C-terminal region (human, UniProt Q96FI4 1-290); assay: pull-down; reverse: Flag-tagged TFAM held on anti-FLAG M2 magnetic beads, NEIL1-FL or NEIL1-Δ100 as prey; with and without DNA; eluted with 3X Flag peptide, SDS-PAGE
T1 construct: NEIL1, human, C-terminal 100 residues deleted; Prakash et al., 2017; Sharma et al., 2018; also called NEIL1-∆100; source: E. coli Rosetta 2, purified

[2] = molecular target: T2, full-length NEIL1 (NEIL1-FL), C-terminal His-tagged (human, UniProt Q96FI4 1-390); assay: far-Western, overlay or dot blot; 50 pmol NEIL1 polypeptides separated by SDS-PAGE, on PVDF, denatured in 6M guanidine HCl and refolded; incubated with purified TFAM overnight; detected with anti-TFAM antibody
T2 construct: NEIL1 DNA glycosylase, human, full length (390 residues by the printed tail aa 290-390; theoretical mass with tag 44.75 kDa); pET30a plasmid from the Doublié and Wallace laboratories; Called 'untagged' in the Flag pull-down, meaning without Flag; also called NEIL1 DNA glycosylase; source: E. coli Rosetta 2, purified (Talon beads, HiTrap SPFF ion exchange, Superdex 200); not shown: His tag, …

[3] = molecular target: T1, NEIL1-Δ100, truncated NEIL1 lacking 100 …; assay: as above
NEIL1-∆40 = molecular target: T3, NEIL1-∆40 (human, UniProt Q96FI4 1-350); assay: as above
T3 construct: NEIL1, human, C-terminal 40 residues deleted; source: E. coli Rosetta 2, purified

NEIL1-∆56 = molecular target: T4, NEIL1-∆56 (human, UniProt Q96FI4 1-334); assay: as above
T4 construct: NEIL1, human, C-terminal 56 residues deleted; source: E. coli Rosetta 2, purified

NEIL1-∆78 = molecular target: T5, NEIL1-∆78 (human, UniProt Q96FI4 1-312); assay: as above
T5 construct: NEIL1, human, C-terminal 78 residues deleted; source: E. coli Rosetta 2, purified

Measured: binding result

T1 sequence (Q96FI4 1-290, stated change not applied): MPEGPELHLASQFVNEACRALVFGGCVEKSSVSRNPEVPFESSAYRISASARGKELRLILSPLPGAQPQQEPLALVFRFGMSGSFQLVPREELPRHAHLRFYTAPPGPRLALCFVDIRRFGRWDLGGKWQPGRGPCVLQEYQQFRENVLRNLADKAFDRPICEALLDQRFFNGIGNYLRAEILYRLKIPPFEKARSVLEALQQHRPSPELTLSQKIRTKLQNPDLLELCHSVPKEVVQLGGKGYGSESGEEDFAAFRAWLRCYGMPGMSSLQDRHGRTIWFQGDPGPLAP
T3 sequence (Q96FI4 1-350): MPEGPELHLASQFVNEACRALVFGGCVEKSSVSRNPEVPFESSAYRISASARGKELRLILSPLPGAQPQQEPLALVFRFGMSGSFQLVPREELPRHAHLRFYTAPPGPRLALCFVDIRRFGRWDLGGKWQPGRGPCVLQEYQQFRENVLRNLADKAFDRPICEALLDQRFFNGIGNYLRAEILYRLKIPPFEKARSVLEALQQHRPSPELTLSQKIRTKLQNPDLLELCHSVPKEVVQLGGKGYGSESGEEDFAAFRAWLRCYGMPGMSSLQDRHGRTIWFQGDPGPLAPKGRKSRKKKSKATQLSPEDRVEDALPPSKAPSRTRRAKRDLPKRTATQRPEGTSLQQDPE
T5 sequence (Q96FI4 1-312): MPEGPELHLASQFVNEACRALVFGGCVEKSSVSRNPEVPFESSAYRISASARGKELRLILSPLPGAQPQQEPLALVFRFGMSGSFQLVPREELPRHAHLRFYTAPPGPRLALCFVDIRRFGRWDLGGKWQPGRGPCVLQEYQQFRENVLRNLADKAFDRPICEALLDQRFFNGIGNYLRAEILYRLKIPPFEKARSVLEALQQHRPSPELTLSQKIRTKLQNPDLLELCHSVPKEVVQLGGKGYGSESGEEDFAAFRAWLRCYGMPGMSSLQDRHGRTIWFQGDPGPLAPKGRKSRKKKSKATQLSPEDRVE
T2 sequence (Q96FI4 whole entry, the tested form may be a part): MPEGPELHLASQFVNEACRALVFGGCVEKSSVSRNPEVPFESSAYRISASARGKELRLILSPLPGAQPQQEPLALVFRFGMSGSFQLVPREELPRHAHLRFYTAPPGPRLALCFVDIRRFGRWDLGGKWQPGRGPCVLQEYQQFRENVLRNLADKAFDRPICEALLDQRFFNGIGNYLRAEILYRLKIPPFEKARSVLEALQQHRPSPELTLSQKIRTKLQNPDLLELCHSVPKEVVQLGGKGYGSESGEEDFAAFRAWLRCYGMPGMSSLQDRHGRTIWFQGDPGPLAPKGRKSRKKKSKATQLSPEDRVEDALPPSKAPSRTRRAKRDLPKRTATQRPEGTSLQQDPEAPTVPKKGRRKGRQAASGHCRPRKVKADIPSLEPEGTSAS
T4 sequence (Q96FI4 1-334): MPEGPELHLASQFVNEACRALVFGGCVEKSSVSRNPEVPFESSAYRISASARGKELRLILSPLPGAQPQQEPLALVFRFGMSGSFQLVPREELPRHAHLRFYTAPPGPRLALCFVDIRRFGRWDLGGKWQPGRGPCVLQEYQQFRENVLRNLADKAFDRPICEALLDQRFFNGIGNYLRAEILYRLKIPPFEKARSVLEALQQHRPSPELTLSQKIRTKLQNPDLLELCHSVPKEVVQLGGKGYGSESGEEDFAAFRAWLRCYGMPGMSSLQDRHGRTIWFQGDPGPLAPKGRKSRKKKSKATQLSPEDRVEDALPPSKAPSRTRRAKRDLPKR

B1: Flag-tagged TFAM (natural protein, UniProt Q00059 43-246, looked up)
chain: SSVLASCPKKPVSSYLRFSKEQLPIFKAQNPDAKTTELIRRIAQRWRELPDSKKKIYQDAYRAEWQVYKEEISRFKEQLTPSQIMSLEKEIMDKHLKRKAMTKKKELTLLGKPKRPRSAYNVYVAERFQEAKGDSPQEKLKTVKENWKNLSDSEKELYIQHAKEDETRYHNEMKSWEEQMIEVGRKDLLRRTIKKQRKYGAEEC
notes: also called C-terminal Flag-tagged purified TFAM; source: E. coli, purified; not shown: Flag, C-terminal, kept
binds: [1]

B2: mitochondrial transcription factor A (TFAM) lacking the mitochondrial targeting sequence (natural protein, UniProt Q00059 43-246, looked up)
chain: SSVLASCPKKPVSSYLRFSKEQLPIFKAQNPDAKTTELIRRIAQRWRELPDSKKKIYQDAYRAEWQVYKEEISRFKEQLTPSQIMSLEKEIMDKHLKRKAMTKKKELTLLGKPKRPRSAYNVYVAERFQEAKGDSPQEKLKTVKENWKNLSDSEKELYIQHAKEDETRYHNEMKSWEEQMIEVGRKDLLRRTIKKQRKYGAEEC
notes: theoretical MW 25.6 kDa; Printed domain limits: HMG-box A 43-122, linker 122-152, HMG-box B 152-222, C-terminal tail 222-246; Subcloned into pET30a from a full-length ORF plasmid; also called full-length TFAM monomer (lacking the N-terminal MTS); source: E. coli, purified (as Ngo et al., 2011)
binds: [2] | [3] | NEIL1-∆40 | NEIL1-∆56 | NEIL1-∆78
